T1: hB7-H4 (soluble human B7-H4, construct not named) (human, UniProt Q7Z7D3 25-259, limits assumed)
T1 construct: also called soluble hB7-H4
T1 sequence: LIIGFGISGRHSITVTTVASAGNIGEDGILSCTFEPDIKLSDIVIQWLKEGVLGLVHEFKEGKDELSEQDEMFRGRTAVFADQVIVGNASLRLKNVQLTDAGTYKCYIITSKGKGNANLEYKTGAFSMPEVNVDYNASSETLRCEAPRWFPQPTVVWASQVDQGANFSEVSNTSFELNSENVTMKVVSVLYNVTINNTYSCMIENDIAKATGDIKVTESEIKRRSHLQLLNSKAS

T2: mB7-H4 (soluble mouse B7-H4, construct not named) (mouse, UniProt Q7TSP5 25-257, limits assumed)
T2 sequence: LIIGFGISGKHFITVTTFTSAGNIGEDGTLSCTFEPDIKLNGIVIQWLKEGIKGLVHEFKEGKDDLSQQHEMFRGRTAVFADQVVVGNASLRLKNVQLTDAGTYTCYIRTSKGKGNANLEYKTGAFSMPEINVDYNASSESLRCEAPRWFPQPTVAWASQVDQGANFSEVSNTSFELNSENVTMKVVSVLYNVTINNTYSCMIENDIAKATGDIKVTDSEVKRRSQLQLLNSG

T3: human B7-H4 expressed on cells (human, UniProt Q7Z7D3 25-282)
T3 construct: Transfected CHO cells or tumor cell lines that carry hB7-H4; also called cellular hB7-H4
T3 sequence: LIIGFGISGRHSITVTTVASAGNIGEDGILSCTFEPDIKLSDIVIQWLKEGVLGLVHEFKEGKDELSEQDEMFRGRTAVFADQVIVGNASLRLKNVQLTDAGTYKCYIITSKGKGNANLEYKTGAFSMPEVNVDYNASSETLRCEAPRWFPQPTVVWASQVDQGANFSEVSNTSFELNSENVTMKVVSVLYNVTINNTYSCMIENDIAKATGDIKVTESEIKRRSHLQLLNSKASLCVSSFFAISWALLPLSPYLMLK

T4: human B7-H4-his (human, UniProt Q7Z7D3 25-259)
T4 construct: also called hB7-H4-his; hB7-H4 his; not shown: his tag
T4 sequence: T1 sequence

T5: mouse B7-H4 expressed on cells (mouse, UniProt Q7TSP5 25-257)
T5 construct: also called cellular mB7-H4; mB7-H4/CT26
T5 sequence: T2 sequence

T6: mouse B7-H4-his (mouse, UniProt Q7TSP5 25-257)
T6 construct: also called mB7-H4-his; mB7-H4-His; not shown: his tag
T6 sequence: T2 sequence

B1: 9D11/67C3 (antibody, human IgG1, V domains shown)
VH: QVQLVQSGAEVKKPGASVKVSCKASGYTFTSYGISWVRQAPGQGLEWVGVINPNGGTTTYAQTFQGRVTMTRDTSTSTVYMELSSLRSEDTAVYYCARTGYSSGWAFDYWGRGTLVTVSS
VL: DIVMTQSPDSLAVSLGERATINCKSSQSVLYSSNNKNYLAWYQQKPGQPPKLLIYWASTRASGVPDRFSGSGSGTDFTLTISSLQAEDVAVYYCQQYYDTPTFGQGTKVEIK
notes: 9D11 VH with 67C3 VL
B2: 9D11/67E12 (antibody, human IgG1, V domains shown)
VH: B1 VH
VL: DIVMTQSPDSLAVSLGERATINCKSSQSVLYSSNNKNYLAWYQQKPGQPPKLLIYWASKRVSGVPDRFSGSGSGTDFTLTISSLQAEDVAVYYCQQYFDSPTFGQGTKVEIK
notes: 9D11 VH with 67E12 VL
B3: 39A11/56A9 (antibody, human IgG1, V domains shown)
VH: EVQLLESGGGLVQPGGSLRLSCAASGFTFSSYGMHWVRQAPGKGLEWVASISSSSGYIYYADSVKGRFTISRDNSKNTLYLQMNSLRAEDTAVYYCARASSGMDVWGQGTTVTVSS
VL: DIQMTQSPSSLSASVGDRVTITCRASQSISSYLNWYQQKPGKAPKLLIYAASIRESGVPSRFSGSGSGTDFTLTISSLQPEDFATYYCQQYYTTPLTFGQGTKLEIK
notes: 39A11 VH with 56A9 VL
B4: 39A11/57H3 (antibody, human IgG1, V domains shown)
VH: B3 VH
VL: B3 VL with R24Q, S28D, S30R, S31K, I53T, T93S, T94L
notes: 39A11 VH with 57H3 VL
B5: 39A11/56H7 (antibody, human IgG1, V domains shown)
VH: B3 VH
VL: B3 VL with I53N, R54L, E55Q
notes: 39A11 VH with 56H7 VL
B6: 39A11/62F9 (antibody, human IgG1, V domains shown)
VH: B3 VH
VL: B3 VL with I29V, Y32A, L33V, N34A, T93S
notes: 39A11 VH with 62F9 VL

Substitutions are numbered along the chain they refer to.

T7 sequence (chain, as listed by the source): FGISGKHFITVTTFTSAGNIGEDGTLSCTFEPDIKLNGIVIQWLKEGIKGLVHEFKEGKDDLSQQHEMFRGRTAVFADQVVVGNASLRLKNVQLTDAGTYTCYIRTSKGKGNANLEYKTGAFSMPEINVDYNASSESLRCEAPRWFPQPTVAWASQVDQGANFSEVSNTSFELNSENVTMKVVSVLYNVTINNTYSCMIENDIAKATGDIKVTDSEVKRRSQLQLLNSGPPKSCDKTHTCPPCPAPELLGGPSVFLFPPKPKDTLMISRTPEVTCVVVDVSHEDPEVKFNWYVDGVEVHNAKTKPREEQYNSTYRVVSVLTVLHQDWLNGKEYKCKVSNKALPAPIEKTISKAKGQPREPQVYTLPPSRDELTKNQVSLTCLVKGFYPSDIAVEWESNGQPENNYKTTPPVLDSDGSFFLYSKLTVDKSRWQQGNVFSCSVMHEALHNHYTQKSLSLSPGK

The target of one assay is T1, hB7-H4 (soluble human B7-H4, construct …). Kind of assay: ELISA, hB7-H4. As for the experimental part:
(§1) About 1-2 μg/ml of human or mouse B7-H4-Fc (or his-tagged) was immobilized on ELISA plates (Immuno 2HB, Thermo scientific, cat #3455) at 4° C. overnight. After blocking the plates with 3% PBS+milk, serial diluted antibodies were added to the blocked plates and incubated at RT for 1-1.5 h. After washing the plates with PBS-T (0.05%), horse radish peroxidase (HRP)-conjugated antibody targeting the hFab was added to the plate. Signals were developed by adding 3,3′,5,5′-Tetramethylbenzidine (TMB (followed 1N of H₂SO₄ to stop the reaction. The OD at 450 nm was read by ELISA plate reader (Infinite M1000 from TECAN). GraphPad from Prism was used to plot OD450 vs. antibody concentration curve and to calculate the EC50 values.
For orientation: ELISA stands for enzyme-linked immunosorbent assay.
B1: the EC50 was 112 pM.
With B2, a half-maximal response (EC50) required 203 pM.
B3 returned an EC50 of 81 pM.
The same measure, in the same setting: next, B4: 86 pM; B5: 61 pM.
The same measure, in the same setting: the same measure for B6: 79 pM.

A further assay shares this target. Kind of assay: SPR (Biacore). As for the experimental part:
(§2) Surface plasmon resonance experiments were performed using a Biacore T200 instrument equipped with CM5 sensor chips. The system was equilibrated in running buffer HBS-EP pH 7.4. The ligands were immobilized using amine-coupling chemistry. The surfaces of flow cells one through four were activated for 5 min using an amine coupling kit at a flow rate of […]. The ligands (human B7-H4-Fc, human B7-H4-hism and mouse B7-H4-Fc; at a concentration of 5 μg/ml in 10 mM sodium acetate, pH 5.0) were immobilized at a density of 50-100 RU on flow cell 2, 3, 4 respectively. Flow cell 1 was left blank to serve as a reference surface. All flow cell surfaces were blocked with a 5 min injection of 1 M ethanolamine, pH 8.0. To collect kinetic binding data, the respective analyte (diluted in 1×HBS-EP buffer, pH 7.4) was injected over the four flow cells at concentrations of 100 nM to 0.1 nM at a flow rate of […] and at a temperature of 25° C. The protein complex was allowed to associate and dissociate for 180 seconds and 1000 or 1200 seconds, respectively. The surfaces were regenerated with a 30 second injection of 1.5 M NaCl/0.05 M NaOH. The data were fit to a simple 1:1 interaction model using the Langmuir fit option available within the Biaevaluaton software
In general terms: In SPR one partner is held on a chip, and binding of the other changes the refractive index at the surface.
The molecule B1 displayed a Kd of 11400 pM. This counts as double-digit nanomolar.
B2 returned a Kd of 6300 pM.
Take B3: the affinity, expressed as Kd, was 1210 pM.
On the same count and under the same terms, next, B4: 478 pM.
Same read-out and setting: next, B5: 779 pM; B6: 853 pM.

The target of another assay is T2, mB7-H4 (soluble mouse B7-H4, construct …). Briefly: SPR (Biacore). As for the experimental part:
as §2
For the molecule B1, binding was characterised by a dissociation constant (Kd) of 10400 pM.
The same measure, in the same setting: next, B2: 4660 pM.
For B3, the Kd stood at 1.38 pM.
As to B4, the Kd amounted to 1.25 pM and the koff amounted to 6.22e-07 s⁻¹.
In turn, B5 came in with a Kd of 0.219 pM.
On the same count and under the same terms, next, B6: 1850 pM.

For the next assay the target is unchanged. Briefly: ELISA, mB7-H4. The method, then: as §1
Turning to B1, it took 86 pM to reach a half-maximal effect (EC50).
Same read-out and setting: next, B2: 110 pM; B3: 130 pM; B4: 128 pM.
B5 displayed a concentration giving a half-maximal response (EC50) of 107 pM.
For the molecule B6, the EC50 came to 124 pM. This EC50 and that of the molecule before are within 1.5-fold of each other.

For a further assay, the target named is T3, human B7-H4 expressed on cells. Briefly: flow cytometry, SK-BR-3 cells. As for the experimental part: (§3) Cells were harvested, washed once, and then re-suspended to the concentration of 1×10⁶ cells/ml in ice cold FACS Buffer. 25 μl of cell suspension was added to each well of a 96-well round-bottom microliter plate. Serially diluted antibodies or fusion proteins were added to each well and incubated for 1 hour at 4° C. Cells were washed three times by centrifugation at 1500 rpm for 5 minutes, and then stained with secondary antibody (1:200 dilution) for 30 min at 4° C. in the dark. Cells were washed once, re-suspended in 100 μl PBS buffer and then analyzed using Guava Flow Cytometry EasyCyte system.
Take B1: it took 4060 pM to reach a half-maximal effect (EC50).
The same measure, in the same setting: the same measure for B2: 8080 pM; for B3: 2530 pM; for B4: 2070 pM.
Still for that read-out and setting: next, B5: 2850 pM; B6: 1310 pM.

A further assay concerns the target T7, mouse B7-H4-Fc (mouse; human).
T7 construct: also called mB7-H4-Fc; mB7-H4-hFc
Briefly: ELISA, coated mB7-H4-Fc. As for the experimental part: as §1
B1: the binding result is reported as “binds”.
Same read-out and setting: the same measure for B2: “binds”; for B3: “binds”; for B4: “binds”.
The same measure, in the same setting: the same measure for B5: “binds”; for B6: “binds”.

In a further assay the target is T4, human B7-H4-his. Briefly: ELISA, coated hB7-H4-his. The method, then:
as §1
Take B1: the “EC50 (read off the curve)” value was approximately 200 pM.
On the same count and under the same terms, next, B2: approximately 200 pM.

A further assay has as its target T5, mouse B7-H4 expressed on cells. Kind of assay: flow cytometry, mB7-H4/CT26 cells. As for the experimental part: as §3
For the molecule B1, the concentration giving a half-maximal response (EC50) was 28200 pM.
Turning to B2, the EC50 worked out at 16700 pM.
As to B3, a half-maximal effect (EC50) was put at 1850 pM. Compared with the last molecule, the EC50 is about 9-fold lower.
B4: the EC50 was 1630 pM.
B5: a half-maximal response (EC50) required 1670 pM. The EC50 values of the last two molecules are within 1.5-fold of each other.
Same read-out and setting: the same measure for B6: 1320 pM.

In the next assay the target is T8, IgC domain of human B7-H4-Fc (human).
T8 construct: also called hB7-H4 IgC domain
T8 sequence (chain, as listed by the source): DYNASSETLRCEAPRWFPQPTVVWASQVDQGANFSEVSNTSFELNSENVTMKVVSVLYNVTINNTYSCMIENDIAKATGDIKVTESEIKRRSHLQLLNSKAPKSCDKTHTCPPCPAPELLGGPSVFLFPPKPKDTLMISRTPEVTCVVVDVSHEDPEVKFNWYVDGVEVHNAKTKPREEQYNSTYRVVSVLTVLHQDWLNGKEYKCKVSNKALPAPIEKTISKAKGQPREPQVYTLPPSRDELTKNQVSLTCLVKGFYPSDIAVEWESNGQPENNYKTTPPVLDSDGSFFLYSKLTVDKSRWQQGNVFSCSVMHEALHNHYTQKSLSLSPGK
Briefly: ELISA, coated hB7-H4 IgC domain.
As for B3, the binding result is given as “no binding (tested: log 1 nM (10 nM))”.
With B4, the binding result is listed as “no binding (tested: log 1 nM (10 nM))”.
Still for that read-out and setting: the same measure for B5: “no binding (tested: log 1 nM (10 nM))”; for B6: “no binding (tested: log 1 nM (10 nM))”.

A further assay deals with T9, IgC domain of mouse B7-H4-Fc (mouse; human).
T9 construct: also called mB7-H4 IgC domain
T9 sequence (chain, as listed by the source): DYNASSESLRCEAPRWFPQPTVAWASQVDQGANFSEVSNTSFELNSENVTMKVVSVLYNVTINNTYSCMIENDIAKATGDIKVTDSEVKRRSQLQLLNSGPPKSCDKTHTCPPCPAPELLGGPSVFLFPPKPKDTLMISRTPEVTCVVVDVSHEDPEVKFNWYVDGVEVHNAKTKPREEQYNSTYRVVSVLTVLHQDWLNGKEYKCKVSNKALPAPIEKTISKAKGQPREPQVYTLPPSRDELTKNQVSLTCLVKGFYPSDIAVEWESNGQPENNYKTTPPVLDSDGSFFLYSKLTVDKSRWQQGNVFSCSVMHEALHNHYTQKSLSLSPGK
Briefly: ELISA, coated mB7-H4 IgC domain.
For the molecule B3, the binding result was “no binding (tested: log 1 nM (10 nM))”.
Turning to B4, the binding result is recorded as “no binding (tested: log 1 nM (10 nM))”.
On the same count and under the same terms, the same measure for B5: “no binding (tested: log 1 nM (10 nM))”.
On the same count and under the same terms, next, B6: “no binding (tested: log 1 nM (10 nM))”.

A further assay addresses T6, mouse B7-H4-his. Briefly: ELISA, coated mB7-H4-his (title on the sheet: Binding to mB7H4-his). As for the experimental part:
as §1
For the molecule B1, the half-maximal effective concentration (EC50 (read off the curve)) is approximately 200 pM.
Consider B2, for which the “EC50 (read off the curve)” value was approximately 100 pM.

Broadly, the EC50 is the concentration needed to bring the measured effect to its halfway point. A high value points to lower potency in that assay. For orientation: Kd means the free concentration of one partner at which half of the binding sites on the other are occupied at equilibrium, for simple one-to-one binding. Higher therefore signals a looser complex. Broadly, the koff is the first-order rate constant of dissociation. By EC50 (read off the curve) is commonly meant the concentration needed to bring the measured effect to its halfway point. A high value points to weaker potency.

The record behind these values is patent publication US20230312724A1 (KADMON, published 2023).
